Assay results: patent publication US20250230236A1 (SINGAPORE HEALTH SERVICES PTE, published 2025)

Molecular target: T1, GRP78 (UniProt P11021 19-654)
T1 construct: Endogenous protein of PC-9 cells
Experiment: cross-immunoprecipitation
Procedure: FIGS. 6A-6B show A) immunoprecipitation with GR 6A04. Boxed area was excised for mass spectrometry. B) Mass spectrometry analysis of excised region identified the top 5 putative antigens after removal of non-specific hits found in the same region in the Column Control lane. […] The antigen identity was then validated by a pull-down with commercial antibodies against the target, and a cross-probe of the immunoprecipitated products with GR 6A04, and vice-versa. GRP78 was tested by cross-IP and ruled out as possible antigen for GR 6A04.
Immunoprecipitation (IP) was conducted using the automated Phynexus MEA system (Phynexus Inc., USA). GR6A04 was captured onto Protein G PhyTip columns containing 5 ul of resin bed. The column was then washed with PBS to remove unbound proteins, and PC-9 membrane protein extract was introduced to bind to GR6A04 that has been captured on the column. The column was then washed with Wash Buffer II (140 mM NaCl, pH7.4) before elution at low pH with Elution Buffer (200 mM NaH2PO4/140 mM NaCl pH 2.5) and neutralized immediately with 1 M Tris-Cl pH 9.0. The IP product is then subjected to analysis by Western blot.

T1 sequence (P11021 19-654 limits assumed): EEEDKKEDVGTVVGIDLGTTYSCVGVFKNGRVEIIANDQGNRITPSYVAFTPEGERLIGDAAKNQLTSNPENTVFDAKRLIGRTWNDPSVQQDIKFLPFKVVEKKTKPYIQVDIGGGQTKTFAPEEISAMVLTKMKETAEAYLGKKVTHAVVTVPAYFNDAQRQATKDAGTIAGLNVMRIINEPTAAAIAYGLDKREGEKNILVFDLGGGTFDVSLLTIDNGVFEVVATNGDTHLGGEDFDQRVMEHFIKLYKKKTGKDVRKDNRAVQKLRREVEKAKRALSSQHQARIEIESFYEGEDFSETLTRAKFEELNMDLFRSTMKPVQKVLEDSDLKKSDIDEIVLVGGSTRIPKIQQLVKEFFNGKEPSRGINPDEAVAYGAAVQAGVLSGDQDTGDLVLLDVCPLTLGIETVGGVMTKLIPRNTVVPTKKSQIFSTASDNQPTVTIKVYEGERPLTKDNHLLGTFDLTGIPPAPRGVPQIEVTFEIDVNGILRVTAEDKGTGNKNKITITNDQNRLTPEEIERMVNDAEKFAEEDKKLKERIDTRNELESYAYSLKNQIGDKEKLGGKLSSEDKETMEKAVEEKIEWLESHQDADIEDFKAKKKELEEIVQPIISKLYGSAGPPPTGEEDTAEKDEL

B1: GR6A04 monoclonal antibody (antibody, mouse IgG1, V domains shown)
VH: SGPELVKPGASVKMSCKASGNTFTSYVMHWVKQKPGQGLEWIGYINPYNDGTKYNEKFKGKATLTSDKSSSTAYMELSSLTSEDSAVYYCARSTARATPYFYAMDYWGQGTSVTVSS
VL: DILMTQSPSSLAVTAGEKVTMRCKSSQSLLWSVNQNSYLSWYQLKQGQPPKLLLYGASIRESWVPDRFTGSGSGTDFTLTISNVHVEDLAVYYCQHNHGSFLPYTFGGGTKLEIK
notes: also called mAb GR 6A04
- binding result: no binding
